Patent US12422438B2, “Means and methods for single molecule peptide sequencing” (VIB VZW, priority 2017, dated 2025)

What was measured:
[1] = biological target: T1, T. aquaticus aminopeptidase T (Thermus aquaticus, UniProt P23341); experiment: Aminopeptidase assay with different amino acid p-nitroanilide substrates at 40° C. and 80° C.; type: biochemical; settings: FIG. 11
T1 construct: 6xHis (C); made in house; host or cells: E. coli BL21(DE3), pET24b(+)
T1 sequence (P23341 with tags, fused parts or gaps): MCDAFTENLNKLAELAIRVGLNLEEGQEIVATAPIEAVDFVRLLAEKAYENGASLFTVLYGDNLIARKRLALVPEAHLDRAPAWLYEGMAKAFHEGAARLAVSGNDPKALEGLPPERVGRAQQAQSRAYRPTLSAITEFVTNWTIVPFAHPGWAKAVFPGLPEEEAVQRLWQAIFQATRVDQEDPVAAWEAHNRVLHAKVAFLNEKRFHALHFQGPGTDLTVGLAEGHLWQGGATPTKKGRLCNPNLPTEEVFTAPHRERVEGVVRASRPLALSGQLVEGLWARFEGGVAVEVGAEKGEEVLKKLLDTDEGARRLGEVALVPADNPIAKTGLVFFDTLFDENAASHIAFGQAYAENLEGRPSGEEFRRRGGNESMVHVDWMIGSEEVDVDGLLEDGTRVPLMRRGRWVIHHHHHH
Experimental: FIG. 11. Aminopeptidase assay with different amino acid p-nitroanilide substrates. Enzyme and substrate (1.5 mM) were incubated for 2 h at 40° C. or 80° C. in PBS, after which the released p-nitroanilide was quantified by measuring the absorbance at 405 nm.
As described herein and in line with the invention described in current application, the activity differs between different amino acids. At 80° C., the panel of amino acid substrates can be roughly divided in fast-cleaved (L, M, Y, R, F) and slow-cleaved (D, P) substrates. However, at 40° C. it seems like the panel is divided in fast-cleaved (Y, R) and slow-cleaved (D, P), and substrates that lie in between (L, M, F). […] Finally, TagAPT is not only active in the p-nitroanilide assay. […] The N-terminal amino acid from peptides with proline at the second position is not easily cleaved since peptide bonds adjacent to the amino acid proline are resistant to cleavage by most peptidases (Iyver et al. 2015 FEBS Open Bio. 2015 Apr. 2; 5:292-302). In contrast to what Is stated in Minagawa et al (1988 Agricultural and Biological Chemistry 52:1755-1763) we show here that T. aquaticus aminopeptidase T can cleave N-terminal amino acids even when proline is at the second position. This surprising finding greatly enhances the generic use of Tag-APT in the method and uses disclosed in current application and in single molecule peptide sequencing in general.

[2] = Organic solvent tolerance of aminopeptidase T, activity with L-leucine-p-nitroanilide substrate; type: biochemical
Experimental: (§1) FIG. 12. Organic solvent tolerance of aminopeptidase T from T. aquaticus. A. The activity of aminopeptidase T was measured with L-leucine-p-nitroanilide substrate. Enzyme and substrate were incubated for 3 h at 40° C. in 50 mM TrisHCl (pH 8) containing different concentrations of the organic solvents acetonitrile (ACN), methanol (MeOH) and ethanol (EtOH). B. Circular dichroism analysis of aminopeptidase T secondary structure in 0% versus 50% MeOH (in 10 mM dipotassium phosphate buffer (K2HPO4)). C. Enzyme activity in varying concentrations of MeOH in buffer (50 mM TrisHCl, pH 8) versus deionized water (MilliQ).
(§2) It is well-known in the art that this can be achieved by solvents (such as methanol) or high temperatures. When these harsh conditions are needed, the aminopeptidases used should tolerate solvents and/or high temperatures. […] At higher organic solvent concentrations, activity can still be detected, albeit lower. […] Furthermore, the enzyme appears to be fully active in deionized (MS grade) water, which might be advantageous when the enzyme will be used with ultra-sensitive chip technology (e.g. electrical biosensor such as field effect transistors) (FIG. 12C).

[3] = Circular dichroism analysis of aminopeptidase T secondary structure; type: physicochemical; settings: 0% methanol versus 50% methanol, 10 mM K2HPO4
Experimental: as §1, §2

[4] = Peptidase assay with L-leucine-p-nitroaniline of purified enzyme; type: biochemical; settings: 70° C., PBS buffer
Experimental: A peptidase assay with L-leucine-p-nitroaniline (140 μl PBS buffer, 30 μl 24 mM L-leucine-p-nitroaniline in MeOH and 10 μl purified Tag-APT) confirmed the presence of the active (amino) peptidase, with thermophilic properties (activity at Taq optimum of 70° C.) (FIG. 8).

[5] = L-leucine-p-nitroanilide activity check after labeling with maleimide-DyLight650; type: biochemical; settings: N-terminal cysteine labeled with DyLight650
From the text: FIG. 13. Site-specific fluorescent labeling of aminopeptidase T. A. SDS-PAGE analysis of aminopeptidase T after labeling the N-terminal cysteine with an equimolar and a 1×, 10×, 100× and 1000× molar excess of maleimide-DyLight650. Aminopeptidase T was visualized with fluorescence (DyLight650 label) and coomassie (total protein). B. Aminopeptidase T activity check with L-leucine-p-nitroanilide after labeling with maleimide-DyLight650.
Recombinant Taq aminopeptidase containing an extra N-terminal cysteine, was incubated overnight with the fluorescent maleimide-DyLight650 probe in the presence of the reducing agent TCEP (10 mM). Maleimide-DyLight650 was added in equimolar concentration, and in 10×, 100× and 1000× excess molar concentration. After separating the aminopeptidase with SDS-PAGE, it was visualized using a Coomassie stain, as well as with fluorescence to evaluate protein labeling with DyLight650.

B1: aminopeptidase T from T. aquaticus: aminopeptidase T from Thermus aquaticus, Cys added at the N-terminus and 6×His at the C-terminus, SEQ ID No. 8 (protein)
chain: MCDAFTENLNKLAELAIRVGLNLEEGQEIVATAPIEAVDFVRLLAEKAYENGASLFTVLYGDNLIARKRLALVPEAHLDRAPAWLYEGMAKAFHEGAARLAVSGNDPKALEGLPPERVGRAQQAQSRAYRPTLSAITEFVTNWTIVPFAHPGWAKAVFPGLPEEEAVQRLWQAIFQATRVDQEDPVAAWEAHNRVLHAKVAFLNEKRFHALHFQGPGTDLTVGLAEGHLWQGGATPTKKGRLCNPNLPTEEVFTAPHRERVEGVVRASRPLALSGQLVEGLWARFEGGVAVEVGAEKGEEVLKKLLDTDEGARRLGEVALVPADNPIAKTGLVFFDTLFDENAASHIAFGQAYAENLEGRPSGEEFRRRGGNESMVHVDWMIGSEEVDVDGLLEDGTRVPLMRRGRWVIHHHHHH
modifications: labeled TaqAPT
cleavage of dipeptides with a proline at the second position [1]: cleaves dipeptides even with a proline at the second position | acetonitrile concentration up until which enzyme remains completely active ([2]; acetonitrile, 3 h at 40° C., 50 mM TrisHCl (pH 8)): ≤ 33% | enzyme activity in deionized (MS grade) water ([2]; deionized water (MilliQ) versus buffer): fully active | ethanol concentration up until which enzyme remains completely active ([2]; ethanol, 3 h at 40° C., 50 mM TrisHCl (pH 8)): ≤ 33% | methanol concentration up until which enzyme remains completely active ([2]; methanol, 3 h at 40° C., 50 mM TrisHCl (pH 8)): ≤ 50% | structural differences by circular dichroism (CD) [3]: no structural differences were observed | peptidase activity with L-leucine-p-nitroaniline [4]: active | function after labeling with maleimide-DyLight650 [5]: does not jeopardize its function
